Results on two molecules are retold here after US20200331965A1 (EMORY UNIVERSITY, published 2020).

Experiment [1] addresses zonula occludens 1 (rat alveolar epithelial cells) (rat). In words: STORM co-localization, rat AECs without YFP-claudin-5.
Experiment [2] has the same target. The experiment in a line: STORM co-localization, untransduced rat AECs.
The target is the same in experiment [3]. The experiment in a line: STORM co-localization, rat AECs transduced with YFP-claudin-5.
In experiment [4] the target is T1, zonula occludens 1 (rat alveolar epithelial cells) (rat, UniProt A0A0G2K2P5 1-1765).
T1 construct: Endogenous cytoplasmic protein within primary rat AECs (not a surface protein); also called ZO-1
T1 sequence (A0A0G2K2P5 whole entry): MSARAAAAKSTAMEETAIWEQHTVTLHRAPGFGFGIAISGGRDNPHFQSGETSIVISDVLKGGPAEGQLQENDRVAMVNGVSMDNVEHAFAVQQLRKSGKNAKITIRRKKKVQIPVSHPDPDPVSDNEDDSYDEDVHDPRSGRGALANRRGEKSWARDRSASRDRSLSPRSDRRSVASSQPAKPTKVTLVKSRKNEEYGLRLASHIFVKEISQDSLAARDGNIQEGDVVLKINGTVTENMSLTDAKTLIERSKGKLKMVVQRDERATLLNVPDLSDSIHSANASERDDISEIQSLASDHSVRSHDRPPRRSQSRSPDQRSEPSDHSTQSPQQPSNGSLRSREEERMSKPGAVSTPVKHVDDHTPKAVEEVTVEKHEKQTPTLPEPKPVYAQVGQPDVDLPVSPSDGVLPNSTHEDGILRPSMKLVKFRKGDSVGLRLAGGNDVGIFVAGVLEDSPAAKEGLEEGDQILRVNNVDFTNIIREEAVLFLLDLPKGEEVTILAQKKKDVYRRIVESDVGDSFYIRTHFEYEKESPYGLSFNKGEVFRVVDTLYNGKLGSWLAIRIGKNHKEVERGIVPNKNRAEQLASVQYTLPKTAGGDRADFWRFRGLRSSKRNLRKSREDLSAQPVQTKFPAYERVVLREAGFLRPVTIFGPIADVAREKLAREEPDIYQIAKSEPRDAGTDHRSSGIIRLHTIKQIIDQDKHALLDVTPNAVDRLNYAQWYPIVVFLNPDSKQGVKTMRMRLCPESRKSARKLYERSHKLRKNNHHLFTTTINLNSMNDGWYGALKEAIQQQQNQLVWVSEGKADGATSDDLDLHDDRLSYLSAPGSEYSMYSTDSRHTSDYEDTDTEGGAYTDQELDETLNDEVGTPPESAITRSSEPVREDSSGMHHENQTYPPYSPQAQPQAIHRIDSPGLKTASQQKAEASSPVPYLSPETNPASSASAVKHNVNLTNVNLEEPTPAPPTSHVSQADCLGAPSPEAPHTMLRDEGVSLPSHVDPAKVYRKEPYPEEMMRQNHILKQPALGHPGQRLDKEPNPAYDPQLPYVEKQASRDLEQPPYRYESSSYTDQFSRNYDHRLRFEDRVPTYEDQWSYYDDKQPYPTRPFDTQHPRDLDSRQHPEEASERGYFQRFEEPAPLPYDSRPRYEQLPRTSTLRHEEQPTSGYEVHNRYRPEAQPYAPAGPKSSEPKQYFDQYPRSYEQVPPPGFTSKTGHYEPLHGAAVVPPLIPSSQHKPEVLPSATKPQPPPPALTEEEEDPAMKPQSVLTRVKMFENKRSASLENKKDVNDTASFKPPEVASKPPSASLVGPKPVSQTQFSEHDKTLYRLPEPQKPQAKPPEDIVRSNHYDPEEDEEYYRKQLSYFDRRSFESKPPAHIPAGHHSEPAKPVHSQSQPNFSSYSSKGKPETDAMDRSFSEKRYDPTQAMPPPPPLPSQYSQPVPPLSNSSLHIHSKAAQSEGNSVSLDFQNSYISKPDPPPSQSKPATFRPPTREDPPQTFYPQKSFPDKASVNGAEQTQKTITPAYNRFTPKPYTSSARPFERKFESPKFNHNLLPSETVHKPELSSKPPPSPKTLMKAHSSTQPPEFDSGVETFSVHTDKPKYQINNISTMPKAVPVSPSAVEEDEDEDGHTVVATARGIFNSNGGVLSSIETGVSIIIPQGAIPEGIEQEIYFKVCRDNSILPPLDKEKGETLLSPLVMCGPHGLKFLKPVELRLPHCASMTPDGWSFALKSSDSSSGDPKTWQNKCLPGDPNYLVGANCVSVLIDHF
The experiment in a line: STORM co-localization in rat AECs (FIG. 4C).

zonula occludens 1 (rat alveolar epithelial cells) (rat), sequence (A0A0G2 entry or part of it limits assumed): as the sequence (A0A0G2K2P5 whole entry) above

“native claudin-18 (rat alveolar epithelial cells) (from UniProt Q5I0E5 1-261)”: the co-localization stood at 31% in experiment [1] and 16% in experiment [3]. The molecule further returned a co-localization index in experiment [2] of 30.5%.

B1: native claudin-5 (rat alveolar epithelial cells) (other, UniProt Q9JKD6 1-218, looked up)
chain: MGSAALEILGLVLCLVGWVGLILACGLPMWQVTAFLDHNIVTAQTTWKGLWMSCVVQSTGHMQCKVYESVLALSAEVQAARALTVGAVLLALVALFVTLTGAQCTTCVAPGPVKARVALTGGALYALCGLLALVPLCWFANIVVREFYDPTVPVSQKYELGAALYIGWAASALLMCGGGLVCCGAWVCTGRPEFSFPVKYSAPRRTTANGDYDKKNYV
notes: whole, on cells; Endogenous protein in primary rat AECs from control-fed or alcohol-fed rats; detected with antibodies (co-immunopurification, STORM, PLA); also called Cldn-5
Regarding B1, the binding result in experiment [4] is listed as “binds”.
